Here are results for two molecules from patent publication US20010041670A1, “Thrombospondin-binding region of histidine-rich glycoprotein and method of use” (priority 1999, published 2001).

“Also recorded” adds a separate entry of the source.

Assay [1] has as its system Human dermal microvascular EC (HMVEC). In words: Tube formation assay on Matrigel. Type of assay: cell-based. On the procedure:
Tube Formation Assay. Early passage (P2 or P3) HMVEC in 0.2% MVGS were grown on 150 μl of Matrigel (Becton Dickinson, Bedford, Mass., USA) at 3×10^4 cells per well of 48-well plates. Reagents were added and cells were incubated at 5% CO2, 37° C. for 24 hours then photographed. Images were scanned and number of branched structures was counted using Scion Image software (Frederick, Md., USA).
HRGP inhibits the anti-angiogenic effect of TSP-1 in vitro. Microvascular EC were grown on Matrigel under low serum concentrations (0.2%) in the presence of bFGF (2 ng/ml), conditions which are known to induce tube formation. […] The anti-angiogenic activity of TSP-1 was abolished by the addition of HRGP (15 nM), which restored the ability of the EC to form tubular structures. (c).

Assay [2] shares this test system. The assay can be described thus: Endothelial cell chemotaxis assay (modified Boyden chamber). Type of assay: cell-based. As to the method:
Endothelial Cell (EC) chemotaxis assays were performed as described using a modified Boyden chamber with 8 μm gelatin-coated membranes (22). Briefly, confluent flasks of HMVEC were grown in 0.1% MVGS overnight and plated at 3×10^4 cells per well on a gelatinized porous membrane (Osmonics, Minnetonka, Minn., USA). Reagents were added to wells and cells were allowed to migrate at 5% CO2, 37° C. for 4 hours. Membranes were stained and the number of cells migrating was counted. Results were expressed as the percentage of maximum cells migrating towards bFGF (38-113 cells/10 high power fields) minus the number of cells migrating in the absence of bFGF (4-13cells/10 hpf).
HRGP inhibits the anti-chemotactic effect of TSP-1. Because the type I repeat also mediates the interaction of TSP-1 with HRGP, we studied the effect of HRGP on angiogenesis. EC migration towards bFGF was measured using a modified Boyden chamber with an 8 μm gelatin-coated membrane in the presence and absence of TSP-1 (2 nM) and increasing concentrations of HRGP (0-100 nM). Data from 3 separate experiments are expressed as a percentage of migration in the presence of bFGF alone. We measured migration of CD36-expressing microvascular EC towards bFGF. The addition of TSP-1 inhibited bFGF-induced migration of EC (approx. 30%±3% of control 100% value without added TSP-1). […]

For the next assay, the system named is C57B1/6 mice. The assay can be described thus: In vivo subcutaneous Matrigel plug assay. On the procedure: In vivo subcutaneous Matrigel plug assays were performed as described (23). Briefly, 500 μl of Matrigel mixed with proteins or growth factors was injected subcutaneously near the abdominal midline of C57B1/6 mice. Gels were removed after 10 days, fixed in 1% paraformaldehyde, embedded in paraffin, sectioned, and stained with hematoxylin and eosin. Immunohistochemistry was performed on unstained sections using an anti-human von Willebrand factor (vWF) IgG (Dako, Glostrup, Denmark) or isotype-matched control (Sigma) and a biotin-streptavidin-peroxidase antibody and development system (Vector Laboratories, Burlingame, Calif.) as described (24) and counterstained with Mayer's hematoxylin (ImmunoGenex, San Ramon, Calif., USA). After scanning, the degree of angiogenesis was determined by counts of vWF-positive blood vessels using Scion Image. For breast tissue, frozen sections of freshly obtained human breast carcinoma were incubated with rabbit antibody to HRGP or CSVTCG or murine monoclonal antibody to TSP, or isotype-matched controls (Sigma), and developed as above. These studies were approved by the Institutional Animal Use Committee.
Matrigel mixed was injected subcutaneously into the midline of mice and resulting plugs were harvested after 10 days, fixed, and paraffin embedded, sectioned, stained with. hematoxylin and eosin, and photographed at 200× magnification. […]

The subject of another assay is wild type C57BL/6 mice. The assay can be described thus: In vivo corneal angiogenesis assay, wild type mice. On the procedure: (§1) FIG. 3. HRGP abrogates the effect of endogenous TSP in the corneal angiogenesis assay. Pellets containing bFGF at various doses with and without HRGP (50 ng) were implanted into the corneas of wild type C57BL/6 (closed symbols) or CD 36 null mice (open symbols), and area of neovascularization was measured after five days. HRGP (--●--) augmented the dose-dependent effect of bFGF (—▪—) in the wild type mice (p=0.0004 by ANOVA). In CD36 null mice, there was an enhanced dose response to bFGF (—□—) (p=0.01), but no effect seen with the addition of HRGP (--◯--). Results represent mean±SE of>6 replicates.
(§2) In vivo corneal angiogenesis assays. Pellets composed of hydron (Hydro Med Sciences, Cranbury, N.J.) and sucralfate (Teva Pharmaceuticals, North Wales, Pa.) were mixed with proteins or growth factors, and were prepared and implanted into the comeas of C57B1/6 mice as described (38). After 5 days, eyes were viewed under a dissecting microscope and photographed with a Sony DKC-1000 digital camera. The area of neovascularization was calculated by measuring vessel length from limbus towards the pellet and number of clock hours of vascularization as described (39, 40). Studies were approved by the Institutional Animal Use Committee.
In a second type of in vivo experiment, hydron/sucralfate pellets containing bFGF, TSP-1, and/or HRGP were implanted in the corneas of C57B1/6 mice. […] Similar results were obtained when HRGP was added in a separate pellet from bFGF and TSP-1.
In fact, the dose response curve of bFGF in wild type mice in the presence of HRGP was similar to that seen with bFGF alone in the CD36 null mice. […] The resulting pellet was removed after 10 days, processed and stained for histologic examination and blood vessel counts. TSP-1 inhibited bFGF-induced blood vessel formation (14±8% of blood vessels/mm^2 seen with bFGF), and that HRGP inhibited the anti-angiogenic effect of TSP-1 (80±13%).

For the next assay, the system named is CD36 null mice. In words: In vivo corneal angiogenesis assay, CD36 null mice. As to the method:
as §1, §2
In fact, the dose response curve of bFGF in wild type mice in the presence of HRGP was similar to that seen with bFGF alone in the CD36 null mice. […]

In another assay the target is TSP-1 (Homo sapiens, UniProt P07996). To be noted: saturable, reversible binding; read-out: affinity of HRGP binding to TSP-1; cited from earlier work.
TSP-1, sequence (P07996 19-1170): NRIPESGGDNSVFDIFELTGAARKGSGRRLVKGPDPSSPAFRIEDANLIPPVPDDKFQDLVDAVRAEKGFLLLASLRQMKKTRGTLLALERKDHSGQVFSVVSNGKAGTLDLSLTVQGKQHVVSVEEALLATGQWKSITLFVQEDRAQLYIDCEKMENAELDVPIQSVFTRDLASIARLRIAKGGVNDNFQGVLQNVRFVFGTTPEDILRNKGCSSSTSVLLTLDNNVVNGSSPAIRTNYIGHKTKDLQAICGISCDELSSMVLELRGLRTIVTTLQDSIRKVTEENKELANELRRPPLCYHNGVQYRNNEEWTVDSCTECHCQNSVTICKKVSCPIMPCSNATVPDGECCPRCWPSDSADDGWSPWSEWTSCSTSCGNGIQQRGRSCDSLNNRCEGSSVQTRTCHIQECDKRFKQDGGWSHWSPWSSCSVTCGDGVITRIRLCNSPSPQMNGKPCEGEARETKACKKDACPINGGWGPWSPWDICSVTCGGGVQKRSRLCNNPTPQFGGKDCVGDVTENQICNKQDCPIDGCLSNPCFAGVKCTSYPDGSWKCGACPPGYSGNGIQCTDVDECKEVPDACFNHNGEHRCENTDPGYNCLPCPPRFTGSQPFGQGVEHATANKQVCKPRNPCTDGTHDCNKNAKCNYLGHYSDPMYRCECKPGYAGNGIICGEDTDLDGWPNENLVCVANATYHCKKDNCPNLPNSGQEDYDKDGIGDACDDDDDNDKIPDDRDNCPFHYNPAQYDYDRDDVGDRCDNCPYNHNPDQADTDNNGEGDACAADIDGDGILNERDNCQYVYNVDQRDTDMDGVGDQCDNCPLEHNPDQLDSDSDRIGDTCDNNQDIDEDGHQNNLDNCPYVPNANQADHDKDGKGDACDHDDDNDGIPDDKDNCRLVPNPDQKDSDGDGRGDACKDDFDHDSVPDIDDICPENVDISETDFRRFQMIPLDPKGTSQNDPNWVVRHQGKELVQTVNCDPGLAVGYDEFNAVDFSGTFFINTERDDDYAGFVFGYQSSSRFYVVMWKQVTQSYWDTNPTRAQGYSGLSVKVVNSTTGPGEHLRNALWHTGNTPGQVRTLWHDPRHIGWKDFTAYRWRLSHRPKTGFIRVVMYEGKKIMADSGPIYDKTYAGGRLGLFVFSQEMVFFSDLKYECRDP
Assay [3] addresses T1, 125I-TSP-1 binding to HRGP (Homo sapiens, UniProt P07996).
T1 construct: TSP-1 was purified from human platelet releasate; from tissue; host or cells: TSP-1 from human platelet releasate; HRGP from human plasma
In words: Solid phase binding assay, competition with CD36 fusion proteins. Conditions: increasing concentrations of fusion protein. On the procedure:
Solid phase binding assays were performed as described (18). Briefly, HRGP in carbonate buffer was immobilized on 96-well strips (Immulon-4 Remove-a-well, Dynatech Laboratories Inc., Burlington, Mass., USA) overnight at 4° C. After blocking with 1% BSA, ^125I-TSP-1 was incubated in the presence of varying concentrations of CD36-FP in triplicate, and bound radioactivity was quantified on a gamma counter. Non-specific binding was determined by carrying out binding in the presence of excess unlabeled ligand.
TSP-1 binding to HRGP: competition with CD36.

T1 sequence (P07996 19-1170): as above

B1: HRGP: Histidine-rich glycoprotein, plasma protein purified from human plasma by lys-plasminogen affinity chromatography (protein)
chain: VSPTDCSAVEPEAEKALDLINKRRRDGYLFQLLRIADAHLDRVENTTVYYLVLDVQESDCSVLSRKYWNDCEPPDSRRPSEIVIGQCKVIATRHSHESQDLRVIDFNCTTSSVSSALANTKDSPVLIDFFEDTERYRKQANKALEKYKEENDDFASFRVDRIERVARVRGGEGTGYFVDFSVRNCPRHHFPRHPNVFGFCRADLFYDVEALDLESPKNLVINCEVFDPQEHENINGVPPHLGHPFHWGGHERSSTTKPPFKPHGSRDHHHPHKPHEHGPPPPPDERDHSHGPPLPQGPPPLLPMSCSSCQHATFGTNGAQRHSHNNNSSDLHPHKHHSHEQHPHGHHPHAHHPHEHDTHRQHPHGHHPHGHHPHGHHPHGHHPHGHHPHCHDFQDYGPCDPPPHNQGHCCHGHGPPPGHLRRRGPGKGPRPFHCRQIGSVYRLPPLRKGEVLPLPEANFPSFPLPHHKHPLKPDNQPFPQSVSESCPGKFKSGFPQVSMFFTHTFPK
With B1, the “effect on the anti-angiogenic activity of TSP-1 (tube formation)” value in assay [1] (HRGP 15 nM added to TSP-1 2 nM + bFGF 2 ng/ml) is reported as “abolished”. Further, the “induction of tube formation” value in assay [1] (agent alone, low serum, Matrigel) is listed as “did not directly induce tube formation”. Besides, the “EC migration towards bFGF, percentage of control” value is given as “approx. 30%±15%” in assay [2] (TSP-1 2 nM plus 10 nM HRGP) and “approx. 75%±15%” in assay [2] (TSP-1 2 nM plus 100 nM HRGP). Further, the “blood vessels/mm^2, % of that seen with bFGF” value in the assay with C57B1/6 mice (HRGP added to bFGF + TSP-1 in Matrigel, 10 days) is recorded as 80±13%. Moreover, the “angiogenesis in Matrigel plug (histology)” value with C57B1/6 mice (plugs harvested after 10 days, representative images of 4 experiments) is given as “had no effect”. For the same molecule, the “effect on angiogenic activity (dose response) of bFGF” value with wild type C57BL/6 mice (HRGP 50 ng, bFGF 2.5 to 10 ng, wild type mice, p=0.0004 by ANOVA) was “significantly increased; also recorded: augmented”. The “Area of Neovascularization (mm^2) ± SE” value in the assay with wild type C57BL/6 mice (Wild type mouse, corneal pellet, 5 days) amounted to 0 ± 0 mm^2; in the assay with CD36 null mice (CD36 −/− mouse, corneal pellet, 5 days) it was 0.02 ± 0.004 mm^2. Further, the “induction of corneal angiogenesis by agent alone” value in the assay with wild type C57BL/6 mice (pellet without bFGF) is given as “did not induce angiogenesis”. Moreover, the “effect on sensitivity to low concentrations of bFGF” value with CD36 null mice (HRGP 50 ng, CD36 null mice) is given as “did not effect sensitivity; also recorded: no effect”. For the same molecule, the Kd with TSP-1 was 7 nM.

B2: CD36 FP298-439: CD36-GST fusion protein which does not bind TSP-1 (protein)
chain: KAFASPVENPDNYCFCTEKIISKNCTSYGVLDISKCKEGRPVYISLPHFLYASPDVSEPIDGLNPNEEEHRTYLDIEPITGFTLQFAKRLQVNLLVKPSEKIQVLKNLKRNYIVPILWLNETGTIGDEKANMFRSQVTGKIN
modifications: left off: a dimerising Fc or GST
For the molecule B2, the “inhibition of 125I-TSP-1 binding to immobilized HRGP” value in assay [3] was “had no effect”.
